Measured values taken from patent publication US20250230247A1.

Experiments:
[1] = molecular target: human Dectin-1 expressed on cells (isoform not given) (human) (UniProt Q9BXN2)
[2] = molecular target: human Dectin-1 expressed on cells (isoform not given) (human) (UniProt Q9BXN2); assay: flow cytometry on human monocytes
[3] = molecular target: T1, human Dectin-1 isoform A (human) (UniProt Q9BXN2); assay: flow cytometry on HEK-Blue hDectin-1a cells
T1 sequence: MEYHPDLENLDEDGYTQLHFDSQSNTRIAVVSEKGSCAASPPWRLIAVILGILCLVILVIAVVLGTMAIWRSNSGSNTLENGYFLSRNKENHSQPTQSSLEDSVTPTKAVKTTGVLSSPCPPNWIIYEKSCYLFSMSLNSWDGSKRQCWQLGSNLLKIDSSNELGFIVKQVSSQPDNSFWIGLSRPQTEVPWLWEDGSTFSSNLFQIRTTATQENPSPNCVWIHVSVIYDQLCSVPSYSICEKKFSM

[4] = molecular target: T1, human Dectin-1 isoform A (human); assay: flow cytometry on HEK293F hDectin-1a FL cells
[5] = molecular target: human Dectin-1 expressed on cells (isoform not given) (human) (UniProt Q9BXN2); assay: flow cytometry on human monocytes (summary table)
[6] = molecular target: T1, human Dectin-1 isoform A (human); assay: flow cytometry on HEK-Blue hDectin-1a cells (summary table)
[7] = molecular target: T1, human Dectin-1 isoform A (human); assay: flow cytometry on HEK293F hDectin-1a FL cells (summary table)

B1: commercial anti-Dectin-1 antibody 15E2 (antibody, from a related filing, V domains shown)
VH: QWQLQQSGAELARPGASWKMSCKASGYTFTTYTMHWWKQRPGQGLEWIGYINPSSGYTNYNQKFKDKATLTADKSSSTASMQLSSLTSEDSAWYYCARERAVLVPYAMDYWGQGTSVTVSS
VL: QIVLTQSPAVMSASPGEKWTITCTASSSLSYMHWFQQKPGTSPKLWLYSTSILASGVPTRFSGSGSGTSYSLTISRMEAEDAATYYCQQRSSSPFTFGSGTKLEIK
IFNg secretion in PBMC, immobilized antibody (fold change to isotype) [1]: 1.6
IL6 secretion in PBMC, immobilized antibody (fold change to isotype) [1]: 2.6
TNFa secretion in PBMC, immobilized antibody (fold change to isotype) [1]: 3
EC50 [2]: 0.6 nM
EC50 [3]: 1.2 nM
EC50 [4]: 1.4 nM
EC50 [5]: 0.6 nM
EC50 [6]: 1.2 nM
EC50 [7]: 1.4 nM
